System: Escherichia coli TOP10
Assay: shrunken log2 fold change of peptide-encoding DNA abundance (4.5 h post-induction vs induction); higher = less antimicrobial activity (less host growth inhibition)
Details: time post-induction: 4.5 h; library: site-saturation at positions 5, 18, 19, 20
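Note: peptides expressed intracellularly from a pBAD plasmid library in pooled LB shake-flask culture, induced with 0.3% L-arabinose, DNA abundance read by NGS, three biological replicates, DESeq2 with apeglm shrinkage.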

| Sequence | shrunken log2 fold change |
| --- | --- |
| RRIRTRPPRLPRPRPRPLCWPRP | 0.0326 |
| RRIRMRPPRLPRPRPRPGPHPRP | 0.256 |
| RRIRLRPPRLPRPRPRPANWPRP | 0.0804 |
| RRIRVRPPRLPRPRPRPCDSPRP | -0.0445 |
| RRIRSRPPRLPRPRPRPKGHPRP | -0.000921 |
| RRIRWRPPRLPRPRPRPHHTPRP | -0.313 |
| RRIRGRPPRLPRPRPRPHIQPRP | 0.192 |
| RRIRTRPPRLPRPRPRPDKRPRP | -0.0389 |
| RRIRVRPPRLPRPRPRPIYTPRP | -0.279 |
| RRIRERPPRLPRPRPRPKWSPRP | -0.146 |
| RRIRMRPPRLPRPRPRPDVAPRP | 0.0335 |
| RRIRLRPPRLPRPRPRPNDEPRP | 0.0316 |
| RRIRGRPPRLPRPRPRPNHPPRP | 0.0349 |
| RRIRFRPPRLPRPRPRPVPFPRP | -0.102 |
| RRIRFRPPRLPRPRPRPSQLPRP | -0.462 |
| RRIRHRPPRLPRPRPRPTEMPRP | 0.181 |
| RRIRARPPRLPRPRPRPHKIPRP | -0.0893 |
| RRIRCRPPRLPRPRPRPNDRPRP | -0.299 |
| RRIRYRPPRLPRPRPRPQCHPRP | -0.198 |
| RRIRSRPPRLPRPRPRPIPVPRP | -0.208 |
| RRIRGRPPRLPRPRPRPQARPRP | 0.3 |
| RRIRFRPPRLPRPRPRPFATPRP | -0.0942 |
| RRIRYRPPRLPRPRPRPWTDPRP | -0.038 |
| RRIRIRPPRLPRPRPRPKNAPRP | -0.107 |
| RRIRTRPPRLPRPRPRPIPRPRP | 0.299 |

| Sequence | shrunken log2 fold change |
| --- | --- |
| RRIRMRPPRLPRPRPRPMSEPRP | 0.102 |
| RRIRQRPPRLPRPRPRPDRGPRP | 0.0176 |
| RRIRYRPPRLPRPRPRPWYKPRP | -0.0225 |
| RRIRFRPPRLPRPRPRPYVCPRP | -0.301 |
| RRIRARPPRLPRPRPRPKRTPRP | 0.553 |
| RRIRGRPPRLPRPRPRPGAKPRP | 0.924 |
| RRIRSRPPRLPRPRPRPPVIPRP | -0.0672 |
| RRIRPRPPRLPRPRPRPDNHPRP | -0.521 |
| RRIRPRPPRLPRPRPRPTPSPRP | 0.312 |
| RRIRPRPPRLPRPRPRPCWLPRP | -0.018 |
| RRIRARPPRLPRPRPRPFTIPRP | -0.142 |
| RRIRGRPPRLPRPRPRPCRWPRP | 0.611 |
| RRIRYRPPRLPRPRPRPLRRPRP | 0.17 |
| RRIRPRPPRLPRPRPRPATNPRP | -0.105 |
| RRIRMRPPRLPRPRPRPINTPRP | -0.387 |
| RRIRNRPPRLPRPRPRPTNTPRP | -0.34 |
| RRIRIRPPRLPRPRPRPIHYPRP | -0.791 |
| RRIRKRPPRLPRPRPRPPTKPRP | 0.12 |
| RRIRIRPPRLPRPRPRPLTRPRP | -0.265 |
| RRIRNRPPRLPRPRPRPHCHPRP | -0.398 |
| RRIRGRPPRLPRPRPRPWEYPRP | -0.00088 |
| RRIRIRPPRLPRPRPRPEPIPRP | 0.185 |
| RRIRTRPPRLPRPRPRPVGHPRP | -0.00107 |
| RRIRCRPPRLPRPRPRPPKVPRP | -0.138 |
| RRIRRRPPRLPRPRPRPMRTPRP | 0.911 |

| Sequence | shrunken log2 fold change |
| --- | --- |
| RRIRSRPPRLPRPRPRPHDEPRP | 0.0683 |
| RRIRKRPPRLPRPRPRPCKQPRP | 0.0173 |
| RRIRDRPPRLPRPRPRPQGKPRP | 0.00439 |
| RRIRFRPPRLPRPRPRPKVIPRP | -0.212 |
| RRIRMRPPRLPRPRPRPVNKPRP | -0.256 |
| RRIRQRPPRLPRPRPRPKSTPRP | -0.228 |
| RRIRGRPPRLPRPRPRPDSTPRP | 0.213 |
| RRIRERPPRLPRPRPRPMHFPRP | -0.163 |
| RRIRWRPPRLPRPRPRPDSHPRP | -0.126 |
| RRIRIRPPRLPRPRPRPMLEPRP | 0.0741 |
| RRIRARPPRLPRPRPRPDKWPRP | -0.0676 |
| RRIRKRPPRLPRPRPRPADVPRP | 0.127 |
| RRIRMRPPRLPRPRPRPEKKPRP | 0.104 |
| RRIRDRPPRLPRPRPRPKYHPRP | -0.412 |
| RRIRHRPPRLPRPRPRPSWVPRP | -0.0882 |
| RRIRARPPRLPRPRPRPVYGPRP | -0.235 |
| RRIRNRPPRLPRPRPRPNWWPRP | -0.0262 |
| RRIRQRPPRLPRPRPRPSEYPRP | -0.44 |
| RRIRLRPPRLPRPRPRPNAVPRP | 0.00719 |
| RRIRARPPRLPRPRPRPKWRPRP | 0.176 |
| RRIRWRPPRLPRPRPRPPDDPRP | 0.847 |
| RRIRKRPPRLPRPRPRPFRTPRP | 0.000407 |
| RRIRLRPPRLPRPRPRPCPGPRP | -0.219 |
| RRIRWRPPRLPRPRPRPALVPRP | 0.98 |
| RRIRHRPPRLPRPRPRPDFDPRP | 0.0484 |

| Sequence | shrunken log2 fold change |
| --- | --- |
| RRIRVRPPRLPRPRPRPISFPRP | 0.0233 |
| RRIRARPPRLPRPRPRPWMVPRP | 0.0197 |
| RRIRKRPPRLPRPRPRPIMFPRP | -0.21 |
| RRIRPRPPRLPRPRPRPEKVPRP | -0.127 |
| RRIRIRPPRLPRPRPRPHNDPRP | -0.55 |
| RRIRERPPRLPRPRPRPDMCPRP | 0.00902 |
| RRIRNRPPRLPRPRPRPIIMPRP | -0.729 |
| RRIRPRPPRLPRPRPRPGNVPRP | -0.344 |
| RRIRERPPRLPRPRPRPAHWPRP | 0.339 |
| RRIRGRPPRLPRPRPRPWGWPRP | 1.15 |
| RRIRCRPPRLPRPRPRPIREPRP | -0.0298 |
| RRIRNRPPRLPRPRPRPVRFPRP | 0.0789 |
| RRIRFRPPRLPRPRPRPSAWPRP | 0.534 |
| RRIRQRPPRLPRPRPRPRQKPRP | 0.257 |
| RRIRMRPPRLPRPRPRPTFLPRP | -0.319 |
| RRIRSRPPRLPRPRPRPGEAPRP | 0.287 |
| RRIRYRPPRLPRPRPRPTAEPRP | 0.0226 |
| RRIRIRPPRLPRPRPRPWISPRP | -0.0286 |
| RRIRARPPRLPRPRPRPGMWPRP | 0.485 |
| RRIRPRPPRLPRPRPRPMSGPRP | 0.115 |
| RRIRVRPPRLPRPRPRPIVSPRP | -0.187 |
| RRIRWRPPRLPRPRPRPTDNPRP | -0.17 |
| RRIRKRPPRLPRPRPRPENDPRP | -0.0386 |
| RRIRSRPPRLPRPRPRPRPEPRP | 0.507 |
| RRIRCRPPRLPRPRPRPSQEPRP | 0.0585 |

| Sequence | shrunken log2 fold change |
| --- | --- |
| RRIRLRPPRLPRPRPRPTRGPRP | 0.298 |
| RRIRTRPPRLPRPRPRPKLKPRP | -0.0522 |
| RRIRGRPPRLPRPRPRPQCQPRP | 0.316 |
| RRIRFRPPRLPRPRPRPPYAPRP | 0.0335 |
| RRIRFRPPRLPRPRPRPLWVPRP | 0.0127 |
| RRIRDRPPRLPRPRPRPWSTPRP | -0.274 |
| RRIRHRPPRLPRPRPRPGCYPRP | 0.0554 |
| RRIRMRPPRLPRPRPRPMHAPRP | 0.327 |
| RRIRWRPPRLPRPRPRPCDIPRP | -0.143 |
| RRIRERPPRLPRPRPRPYDLPRP | -0.169 |
| RRIRNRPPRLPRPRPRPQNIPRP | -0.263 |
| RRIRNRPPRLPRPRPRPVVQPRP | 0.0488 |
| RRIRDRPPRLPRPRPRPGNAPRP | 0.126 |
| RRIRFRPPRLPRPRPRPTGMPRP | 0.00753 |
| RRIRRRPPRLPRPRPRPAVFPRP | 0.45 |
| RRIRIRPPRLPRPRPRPKQQPRP | 0.0512 |
| RRIRLRPPRLPRPRPRPQWRPRP | 0.087 |
| RRIRQRPPRLPRPRPRPELMPRP | -0.0508 |
| RRIRTRPPRLPRPRPRPMPYPRP | -0.159 |
| RRIRGRPPRLPRPRPRPTMEPRP | 0.751 |
| RRIRQRPPRLPRPRPRPTPMPRP | 2.6 |
| RRIRHRPPRLPRPRPRPTSVPRP | -0.0283 |
| RRIRKRPPRLPRPRPRPRLFPRP | 0.104 |
| RRIRPRPPRLPRPRPRPIPFPRP | -0.0358 |
| RRIRPRPPRLPRPRPRPQMDPRP | -0.395 |
